Reference: PMC12678408

Columns and labels:
[1] = molecular target: peptidase domain (PD) of Pipistrellus abramus angiotensin-converting enzyme 2 (ACE2) (Pipistrellus abramus) (UniProt C7ECT9); assay: BLI
[2] = molecular target: peptidase domain (PD) of Pitta sordida ACE2 (Pitta sordida); assay: BLI

In the case of “RBD of BtPa-BetaCoV/GD2013 (GenBank accession: AIA62343.1) (domain or fragment)”, the Kd [1] is reported as 0.0234 µM and the Kd [2] is reported as 0.138 µM.
